Assay results taken from patent US6521814B1, “Use of ligands for treatment of diseases responsive to retinoids” (Institut National de la Santa et de la Recherche Medicale, priority 1997, dated 2003).

Tests used:
Details in all cases: tags: ΔAB truncations, bacterially expressed, from H. Gronemeyer
[1] = molecular target: T1, RARα(ΔAB)/RXRα(ΔAB) heterodimer (Mus musculus, UniProt P11416;P28700 P11416:88-462,P28700:140-467); assay: competition; no competition even at 100-fold excess
T1 sequence 1: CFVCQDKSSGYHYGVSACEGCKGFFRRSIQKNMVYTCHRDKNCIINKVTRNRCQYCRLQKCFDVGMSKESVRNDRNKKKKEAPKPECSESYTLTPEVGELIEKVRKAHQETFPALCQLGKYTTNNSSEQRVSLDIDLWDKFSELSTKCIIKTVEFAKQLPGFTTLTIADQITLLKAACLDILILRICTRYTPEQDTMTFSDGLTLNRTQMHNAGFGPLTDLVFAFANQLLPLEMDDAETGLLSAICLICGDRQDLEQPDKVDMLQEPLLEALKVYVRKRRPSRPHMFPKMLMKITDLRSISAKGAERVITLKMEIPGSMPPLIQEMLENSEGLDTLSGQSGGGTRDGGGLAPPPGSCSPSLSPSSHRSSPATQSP
T1 sequence 2: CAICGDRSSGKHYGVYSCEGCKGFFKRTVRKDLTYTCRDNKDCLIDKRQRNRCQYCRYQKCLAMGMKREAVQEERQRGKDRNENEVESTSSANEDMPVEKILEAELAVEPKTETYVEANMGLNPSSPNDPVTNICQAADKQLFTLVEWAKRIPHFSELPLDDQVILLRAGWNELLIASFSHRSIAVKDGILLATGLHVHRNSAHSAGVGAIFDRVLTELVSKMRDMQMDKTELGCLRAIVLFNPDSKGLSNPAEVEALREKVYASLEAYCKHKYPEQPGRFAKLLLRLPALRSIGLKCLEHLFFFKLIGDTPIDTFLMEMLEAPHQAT
Source text: (§1) DNA binding competition assays. Gel shift analysis using labeled RARE D2 (SEQ ID NO:2) and recombinant RARα and RXRα as indicated. As competitors, RARE D2 (SEQ ID NO:2), RAREβ2 (SEQ ID NO:5) and the mutant […] and […] cold oligonucleotides (SEQ ID NO:3) were used as indicated at 5, 50- and 100-fold molar excess. The black arrowhead indicates the shifted complex.
(§2) To further characterize the D2R RARE element and its binding affinity to retinoid receptors, mutations were introduced into this sequence generating D2 ml (SEQ ID NO:3) and D2 m2 (SEQ ID NO:4) (FIG. 7A). These mutated oligonucleotides were used for competition in gel-shift assays (FIG. 8).
(§3) DNA Binding Assays. A 29-bp synthetic oligonucleotide (SEQ ID NO:2) corresponding to the RARE region in the D2R promoter (SEQ ID NO:1) (from positions −76 to −49), in addition to two mutated oligonucleotides (SEQ ID NOs:3 and 4) (FIG. 7A) were used in gel retardation assays. A synthetic oligonucleotide corresponding to the RARE-β2 (SEQ ID NO:5) (Mader, S., et al., *J. Biol. Chem.* 268:591–600 (1993)) was used as positive control. Bacterially-expressed purified mouse RARα (ΔAB) and RXRα (ΔAB) proteins were kindly provided by H. Gronemeyer.

[2] = molecular target: T1, RARα(ΔAB)/RXRα(ΔAB) heterodimer; assay: competition; competes more efficiently than native RARE D2
Source text: as §1, §2, §3

[3] = molecular target: T1, RARα(ΔAB)/RXRα(ΔAB) heterodimer; assay: competition; drastic decrease of labeled RARE D2 complex at 5-fold excess, complete at 50-fold; stronger than RARE D2
Source text: as §1, §3

B1: D2m1 (dsDNA)
DNA 1: AGCTTCCTCGGTGCGAGGGGTACGCCGCG
DNA 2: CGCGGCGTACCCCTCGCACCGAGGAAGCT
B1: no binding [1].

B2: D2m2 (dsDNA)
DNA 1: AGCTTCCTCGTGACCAGGGTGACCCCGCG
DNA 2: CGCGGGGTCACCCTGGTCACGAGGAAGCT
B2: binds [2].

B3: RAREβ2 (dsDNA)
DNA 1: GGGTAGGGTTCACCGAAAGTTCACTG
DNA 2: CAGTGAACTTTCGGTGAACCCTACCC
B3: binds [3].
